B1: engineered M44-L binder (SEQ ID NO: 21) (designed binder, not shown: small tags and cut ends; large carriers)
chain: QVSVQPNFQQDKFLGRWFYAGHASNSSWYREKVAALSMAKLVVAPATDGGLNATETFLRKNQCETITSLLQPAGSLGSYSSRSPHGGSTWSTSVVETDYDQYALLYLQGSKGPGEDFRGAILASRTQTPRAELKEKFTAFSKAQGFTEDTIVFLPQTDKCMTEQ
B2: engineered M44-L binder (SEQ ID NO: 31) (designed binder, not shown: small tags and cut ends; large carriers)
chain: QDSTQNLIPAPPLISVPLQPGFWTERFQGRWFLVGFAGNAVQKERQSRLTMQSLILELQEDNSYNITAINVRGQGCRYIISTLVPSSRPGQFTLGNIHSYPQIQSLDVQVADTDYDQFAMVFLQGTSENKQYFEVALAGRTKGLSDELKERFVSFAKSLGLKDNNIVFSVPTDQCIDN
B3: engineered M44-A binder (SEQ ID NO: 42) (designed binder, not shown: small tags and cut ends; large carriers)
chain: QVSVQPNFQQDKFLGRWFVAGLASNSSWDREKVAALSGAKMVVAPATDGGLNVTRTMLRKNQCETYTGLLQPAGSLGSYSWRSPHPGSTGSESVVETDYDQYALVYGQGSKGPGEDLRAAALWSRTQTPRAELKEKFTAFSKAQGFTEDTIVFLPQTDKCMTEQ

The binders below were run against M44-modified A NTAA target peptides (M44-A-P2-peptide) (assay: encoding assay; P2 D).

Row | encoding yield | Binder
1 | 0.01 | B1
2 | 0.03 | B2
3 | 0.03 | B3

These binders were tested against M44-modified Q NTAA target peptides (assay: encoding assay; P2 D).

Row | encoding yield | Binder
4 | 0.01 | B1
5 | 0.02 | B2
6 | 0.02 | B3

Each binder was assayed against M44-modified I NTAA target peptides (M44-I-P2-peptide) (assay: encoding assay; P2 D).

Row | encoding yield | Binder
7 | 0 | B1
8 | 0.01 | B2
9 | 0.02 | B3

These binders were tested against M44-modified W NTAA target peptides (assay: encoding assay; P2 D;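 note: fraction of recording tags encoded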).

Row | encoding yield | Binder
10 | 0.01 | B1
11 | 0.02 | B2
12 | 0.03 | B3

What follows are binders tested against M44-modified M NTAA target peptides (assay: encoding assay; P2 D).

Row | encoding yield | Binder
13 | 0.01 | B1
14 | 0.02 | B2
15 | 0.04 | B3

The binders below were run against M44-modified F NTAA target peptides (M44-F-P2-peptide) (assay: encoding assay; P2 D;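 note: fraction of recording tags encoded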).

Row | encoding yield | Binder
16 | 0.01 | B1
17 | 0.03 | B2
18 | 0.06 | B3

Each binder was assayed against M44-modified N NTAA target peptides (assay: encoding assay; P2 D).

Row | encoding yield | Binder
19 | 0.01 | B1
20 | 0.02 | B2
21 | 0.02 | B3

Each binder was assayed against M44-modified L NTAA target peptides (M44-L-P2-peptide) (assay: encoding assay; P2 D;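 note: fraction of recording tags encoded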).

Row | encoding yield | Binder
22 | 0.01 | B1
23 | 0.04 | B2
24 | 0.04 | B3

The binders below were run against M44-modified Y NTAA target peptides (M44-Y-P2-peptide) (assay: encoding assay; P2 D;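 note: fraction of recording tags encoded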).

Row | encoding yield | Binder
25 | 0.01 | B1
26 | 0.03 | B2
27 | 0.03 | B3

These binders were tested against M44-modified G NTAA target peptides (M44-G-P2-peptide) (assay: encoding assay; P2 D;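 note: fraction of recording tags encoded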).

Row | encoding yield | Binder
28 | 0.01 | B1
29 | 0.02 | B2
30 | 0.03 | B3

The binders below were run against M44-modified A NTAA target peptides (M44-A-P2-peptide) (assay: encoding assay; P2 Q).

Row | encoding yield | Binder
31 | 0.02 | B1
32 | 0.04 | B2
33 | 0.22 | B3

What follows are binders tested against M44-modified Q NTAA target peptides (assay: encoding assay; P2 Q).

Row | encoding yield | Binder
34 | 0.01 | B1
35 | 0.01 | B2
36 | 0.02 | B3

The binders below were run against M44-modified I NTAA target peptides (M44-I-P2-peptide) (assay: encoding assay; P2 Q).

Row | encoding yield | Binder
37 | 0 | B1
38 | 0.03 | B2
39 | 0.02 | B3

What follows are binders tested against M44-modified M NTAA target peptides (assay: encoding assay; P2 Q).

Row | encoding yield | Binder
40 | 0 | B1
41 | 0.01 | B2
42 | 0.01 | B3

What follows are binders tested against M44-modified F NTAA target peptides (M44-F-P2-peptide) (assay: encoding assay; P2 Q;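 note: fraction of recording tags encoded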).

Row | encoding yield | Binder
43 | 0.01 | B1
44 | 0.04 | B2
45 | 0.03 | B3

What follows are binders tested against M44-modified N NTAA target peptides (assay: encoding assay; P2 Q).

Row | encoding yield | Binder
46 | 0.01 | B1
47 | 0.02 | B2
48 | 0.05 | B3

The binders below were run against M44-modified H NTAA target peptides (assay: encoding assay; P2 Q).

Row | encoding yield | Binder
49 | 0.01 | B1
50 | 0.04 | B2
51 | 0.04 | B3

What follows are binders tested against M44-modified S NTAA target peptides (assay: encoding assay; P2 Q).

Row | encoding yield | Binder
52 | 0.01 | B1
53 | 0.04 | B2
54 | 0.05 | B3

What follows are binders tested against M44-modified L NTAA target peptides (M44-L-P2-peptide) (assay: encoding assay; P2 Q;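 note: fraction of recording tags encoded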).

Row | encoding yield | Binder
55 | 0.02 | B1
56 | 0.12 | B2
57 | 0.04 | B3

Each binder was assayed against M44-modified D NTAA target peptides (assay: encoding assay; P2 Q;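 note: fraction of recording tags encoded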).

Row | encoding yield | Binder
58 | 0.01 | B1
59 | 0.01 | B2
60 | 0.03 | B3

What follows are binders tested against M44-modified V NTAA target peptides (assay: encoding assay; P2 Q;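 note: fraction of recording tags encoded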).

Row | encoding yield | Binder
61 | 0.01 | B1
62 | 0.03 | B2
63 | 0.06 | B3

The binders below were run against M44-modified E NTAA target peptides (assay: encoding assay; P2 Q;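 note: fraction of recording tags encoded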).

Row | encoding yield | Binder
64 | 0.01 | B1
65 | 0.02 | B2
66 | 0.04 | B3

The binders below were run against M44-modified Q NTAA target peptides (assay: encoding assay; P2 G).

Row | encoding yield | Binder
67 | 0.01 | B1
68 | 0.01 | B2
69 | 0.02 | B3

These binders were tested against M44-modified T NTAA target peptides (assay: encoding assay; P2 G).

Row | encoding yield | Binder
70 | 0.02 | B1
71 | 0.04 | B2
72 | 0.11 | B3

The binders below were run against M44-modified I NTAA target peptides (M44-I-P2-peptide) (assay: encoding assay; P2 G).

Row | encoding yield | Binder
73 | 0.17 | B1
74 | 0.09 | B2
75 | 0.08 | B3

The binders below were run against M44-modified W NTAA target peptides (assay: encoding assay; P2 G;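 note: fraction of recording tags encoded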).

Row | encoding yield | Binder
76 | 0.01 | B1
77 | 0.04 | B2
78 | 0.01 | B3

What follows are binders tested against M44-modified M NTAA target peptides (assay: encoding assay; P2 G).

Row | encoding yield | Binder
79 | 0.01 | B1
80 | 0.02 | B2
81 | 0.01 | B3

Each binder was assayed against M44-modified Y NTAA target peptides (M44-Y-P2-peptide) (assay: encoding assay; P2 G;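 note: fraction of recording tags encoded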).

Row | encoding yield | Binder
82 | 0.01 | B1
83 | 0.03 | B2
84 | 0.02 | B3

These binders were tested against M44-modified V NTAA target peptides (assay: encoding assay; P2 G;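 note: fraction of recording tags encoded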).

Row | encoding yield | Binder
85 | 0.02 | B1
86 | 0.02 | B2
87 | 0.05 | B3

The binders below were run against M44-modified E NTAA target peptides (assay: encoding assay; P2 G;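 note: fraction of recording tags encoded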).

Row | encoding yield | Binder
88 | 0.01 | B1
89 | 0.02 | B2
90 | 0.03 | B3

Each binder was assayed against M44-modified A NTAA target peptides (M44-A-P2-peptide) (assay: encoding assay; P2 E).

Row | encoding yield | Binder
91 | 0.01 | B1
92 | 0.03 | B2
93 | 0.05 | B3

The binders below were run against M44-modified Q NTAA target peptides (assay: encoding assay; P2 E).

Row | encoding yield | Binder
94 | 0.01 | B1
95 | 0.02 | B2
96 | 0.03 | B3

What follows are binders tested against M44-modified T NTAA target peptides (assay: encoding assay; P2 E).

Row | encoding yield | Binder
97 | 0.01 | B1
98 | 0.02 | B2
99 | 0.03 | B3

Each binder was assayed against M44-modified M NTAA target peptides (assay: encoding assay; P2 E).

Row | encoding yield | Binder
100 | 0 | B1
101 | 0.01 | B2
102 | 0.01 | B3

These binders were tested against M44-modified N NTAA target peptides (assay: encoding assay; P2 E).

Row | encoding yield | Binder
103 | 0.01 | B1
104 | 0.01 | B2
105 | 0.02 | B3

Each binder was assayed against M44-modified H NTAA target peptides (assay: encoding assay; P2 E).

Row | encoding yield | Binder
106 | 0.01 | B1
107 | 0.02 | B2
108 | 0.03 | B3

Each binder was assayed against M44-modified D NTAA target peptides (assay: encoding assay; P2 E;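 note: fraction of recording tags encoded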).

Row | encoding yield | Binder
109 | 0.01 | B1
110 | 0.02 | B2
111 | 0.03 | B3

Each binder was assayed against M44-modified V NTAA target peptides (assay: encoding assay; P2 E;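 note: fraction of recording tags encoded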).

Row | encoding yield | Binder
112 | 0.01 | B1
113 | 0.02 | B2
114 | 0.06 | B3

These binders were tested against M44-modified E NTAA target peptides (assay: encoding assay; P2 E;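 note: fraction of recording tags encoded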).

Row | encoding yield | Binder
115 | 0.01 | B1
116 | 0.02 | B2
117 | 0.02 | B3

Each binder was assayed against M44-modified A NTAA target peptides (M44-A-P2-peptide) (assay: encoding assay; P2 S).

Row | encoding yield | Binder
118 | 0.01 | B1
119 | 0.02 | B2
120 | 0.1 | B3

What follows are binders tested against M44-modified Q NTAA target peptides (assay: encoding assay; P2 S).

Row | encoding yield | Binder
121 | 0.01 | B1
122 | 0.02 | B2
123 | 0.03 | B3

These binders were tested against M44-modified T NTAA target peptides (assay: encoding assay; P2 S).

Row | encoding yield | Binder
124 | 0.01 | B1
125 | 0.03 | B2
126 | 0.06 | B3

The binders below were run against M44-modified I NTAA target peptides (M44-I-P2-peptide) (assay: encoding assay; P2 S).

Row | encoding yield | Binder
127 | 0.18 | B1
128 | 0.07 | B2
129 | 0.03 | B3

The binders below were run against M44-modified M NTAA target peptides (assay: encoding assay; P2 S).

Row | encoding yield | Binder
130 | 0.07 | B1
131 | 0.07 | B2
132 | 0.05 | B3

These binders were tested against M44-modified P NTAA target peptides (assay: encoding assay; P2 S;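 note: fraction of recording tags encoded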).

Row | encoding yield | Binder
133 | 0.01 | B1
134 | 0.01 | B2
135 | 0.01 | B3

What follows are binders tested against M44-modified F NTAA target peptides (M44-F-P2-peptide) (assay: encoding assay; P2 S;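 note: fraction of recording tags encoded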).

Row | encoding yield | Binder
136 | 0.07 | B1
137 | 0.06 | B2
138 | 0.03 | B3

What follows are binders tested against M44-modified H NTAA target peptides (assay: encoding assay; P2 S).

Row | encoding yield | Binder
139 | 0.01 | B1
140 | 0.03 | B2
141 | 0.01 | B3

These binders were tested against M44-modified L NTAA target peptides (M44-L-P2-peptide) (assay: encoding assay; P2 S;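 note: fraction of recording tags encoded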).

Row | encoding yield | Binder
142 | 0.27 | B1
143 | 0.15 | B2
144 | 0.05 | B3

These binders were tested against M44-modified Y NTAA target peptides (M44-Y-P2-peptide) (assay: encoding assay; P2 S;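 note: fraction of recording tags encoded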).

Row | encoding yield | Binder
145 | 0.04 | B1
146 | 0.07 | B2
147 | 0.06 | B3

What follows are binders tested against M44-modified V NTAA target peptides (assay: encoding assay; P2 S;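 note: fraction of recording tags encoded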).

Row | encoding yield | Binder
148 | 0.04 | B1
149 | 0.03 | B2
150 | 0.03 | B3

These binders were tested against M44-modified G NTAA target peptides (M44-G-P2-peptide) (assay: encoding assay; P2 S;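 note: fraction of recording tags encoded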).

Row | encoding yield | Binder
151 | 0.01 | B1
152 | 0.04 | B2
153 | 0.05 | B3
